Legend:
human FcγRIa = target: T1, human FcγRIa (human, UniProt P12314 16-292, limits assumed); experiment: SPR (Biacore), antibody captured on chip, FcγR as analyte, HBS-EP+, 25°C;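 also: FcγR binding response divided by the amount of captured antibody, then expressed relative to the reference antibody ×100, with antibodies captured via immobilized Protein A, A/G, L or antigen peptides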
T1 construct: Analyte in solution on Biacore; also called FcgRIa; hFcgRIa
Experimental: (§1) Interaction between each modified antibody and Fcγ receptor prepared in the manner described above was analyzed using the Biacore T100 (GE Healthcare), Biacore T200 (GE Healthcare), Biacore A100 or Biacore 4000. HBS-EP+ (GE Healthcare) was used for the running buffer, and measurements were carried out at 25° C. The chips used were chips in which antigen peptides, Protein A (Thermo Scientific), Protein A/G (Thermo Scientific) or Protein L (ACTIGEN or BioVision) were immobilized on the Series S Sensor Chip CM5 (GE Healthcare) or Series S Sensor Chip CM4 (GE Healthcare) by amine coupling, or chips in which preliminarily biotinylated antigen peptides were allowed to interact and then immobilized on the Series S Sensor Chip SA (certified) (GE Healthcare). The target antibodies were captured on these sensor chips, Fcγ receptor diluted with the running buffer was allowed to interact, followed by measurement of the amount of bound antibody. The amounts bound were compared between antibodies. However, since the amount of Fcγ receptor bound depends on the amount of captured antibody, the values used for comparison were first corrected by dividing the amount of Fcγ receptor bound by the captured amount of each antibody. Through reaction with 10 mM glycine-HCl at pH 1.5, the sensor chips were regenerated by washing off antibody captured on the sensor chips and used repeatedly.
(§2) Binding strength was evaluated according to the following method based on the results of analyzing the interaction with each FcγR. […] That value was then further multiplied by 100, and the resulting value was used as an indicator of relative binding activity to each FcγR.

human FcγRIIa(H) = target: T2, human FcγRIIa(H) (human, UniProt P12318 36-217); experiment: as above
T2 construct: Analyte in solution on Biacore; also called FcγRIIa type H; FcgRIIaH
T2 sequence: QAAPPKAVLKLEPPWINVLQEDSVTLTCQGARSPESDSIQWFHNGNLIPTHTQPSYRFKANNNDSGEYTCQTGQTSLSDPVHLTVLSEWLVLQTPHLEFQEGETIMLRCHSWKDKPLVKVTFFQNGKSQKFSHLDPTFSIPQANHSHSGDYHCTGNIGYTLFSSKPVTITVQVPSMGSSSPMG
Experimental: as §1, §2

human FcγRIIb [1] = target: T3, human FcγRIIb (human, UniProt P31994 43-217, limits assumed); experiment: as above
T3 construct: Analyte in solution on Biacore; also called FcgRIIb; hFcgRIIb
T3 sequence: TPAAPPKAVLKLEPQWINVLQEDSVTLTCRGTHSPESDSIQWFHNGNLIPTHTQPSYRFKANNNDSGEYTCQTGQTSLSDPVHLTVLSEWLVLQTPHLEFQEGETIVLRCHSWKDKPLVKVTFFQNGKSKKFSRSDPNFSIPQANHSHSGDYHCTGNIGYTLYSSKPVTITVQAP
Experimental: as §1, §2

human FcγRIIa(R) = target: T4, human FcγRIIa(R) (human, UniProt P12318 36-217); experiment: as above
T4 construct: Analyte in solution on Biacore; also called FcγRIIa type R; FcgRIIaR
T4 chain: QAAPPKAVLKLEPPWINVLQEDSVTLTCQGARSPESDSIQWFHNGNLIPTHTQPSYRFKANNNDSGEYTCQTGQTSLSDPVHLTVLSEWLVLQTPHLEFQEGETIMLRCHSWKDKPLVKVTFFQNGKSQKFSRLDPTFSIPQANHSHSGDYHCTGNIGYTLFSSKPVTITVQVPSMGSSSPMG
Experimental: as §1, §2

human FcγRIIIa(F) = target: T5, human FcγRIIIa(F) (human, UniProt P08637 17-208, limits assumed); experiment: as above
T5 construct: also called FcgRIIIaF; hFcgRIIIa(F)
T5 sequence (P08637 other isoform, or with tags, fused parts or gaps limits assumed): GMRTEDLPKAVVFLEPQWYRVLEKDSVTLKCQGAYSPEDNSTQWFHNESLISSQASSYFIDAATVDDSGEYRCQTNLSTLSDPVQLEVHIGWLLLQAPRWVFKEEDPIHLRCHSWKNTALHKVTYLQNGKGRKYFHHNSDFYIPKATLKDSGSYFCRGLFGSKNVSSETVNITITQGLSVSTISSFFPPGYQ
Experimental: as §1, §2

human FcγRIIb [2] = target: T6, human FcγRIIb (human, UniProt P31994 43-217); experiment: SPR (Biacore), antibody captured on chip, FcγR as analyte; binding amount divided by that of IL6R-F652/IL6R-L, times 100
T6 construct: also called FcγIIB; FcγRIIb extracellular region
T6 sequence: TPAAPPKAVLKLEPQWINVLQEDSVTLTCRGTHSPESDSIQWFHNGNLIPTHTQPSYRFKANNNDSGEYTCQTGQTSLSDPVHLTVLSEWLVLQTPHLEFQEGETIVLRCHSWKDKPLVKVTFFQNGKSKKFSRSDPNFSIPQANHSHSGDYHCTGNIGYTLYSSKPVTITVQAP

human FcγRIIa type R = target: T7, human FcγRIIa type R (human, UniProt P12318 36-217); experiment: as above
T7 construct: also called Fcγ RIIaR; FcγRIIa(R)
T7 chain: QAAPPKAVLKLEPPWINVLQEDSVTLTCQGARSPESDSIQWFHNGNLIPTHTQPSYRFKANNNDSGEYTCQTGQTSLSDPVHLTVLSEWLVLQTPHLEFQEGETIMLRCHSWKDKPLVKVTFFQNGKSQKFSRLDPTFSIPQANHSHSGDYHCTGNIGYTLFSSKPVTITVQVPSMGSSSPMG

T1 sequence (P12314 16-292 limits assumed): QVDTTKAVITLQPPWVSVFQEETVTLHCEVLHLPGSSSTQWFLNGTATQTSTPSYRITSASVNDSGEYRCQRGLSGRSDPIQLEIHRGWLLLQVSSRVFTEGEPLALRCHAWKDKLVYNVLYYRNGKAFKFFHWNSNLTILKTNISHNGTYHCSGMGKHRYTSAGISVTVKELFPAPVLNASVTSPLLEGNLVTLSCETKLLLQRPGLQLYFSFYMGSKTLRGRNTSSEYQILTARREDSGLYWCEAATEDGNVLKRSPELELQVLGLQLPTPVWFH

| Binder | relative binding activity (% of GpH7-B3/GpL16-k0) (human FcγRIa) | relative binding activity (% of GpH7-B3/GpL16-k0) (human FcγRIIa(H)) | relative binding activity (% of GpH7-B3/GpL16-k0) (human FcγRIIb [1]) | relative binding activity (% of GpH7-B3/GpL16-k0) (human FcγRIIa(R)) | relative binding activity (% of GpH7-B3/GpL16-k0) (human FcγRIIIa(F)) | relative binding activity for FcγRIIb (human FcγRIIb [2]) | relative binding activity for FcγRIIaR (human FcγRIIa type R) |
| --- | --- | --- | --- | --- | --- | --- | --- |
| GpH7-B3 variant P331K / GpL16-k0 (antibody, human IgG1, Anti-glypican-3 IgG1; constant region B3 = G1d with K439E) heavy: not shown light: DIVMTQSPLSLPVTPGEPASISCQASESLVHSNRNTYLHWYLQKPGQSPQLLIYKVSNRFSGVPDRFSGSGSGTDFTLKISRVEAEDVGVYYCSQNTHVPPTFGQGTKVEIE | 98% | 58% | 63% | 72% | 34% |  |  |
| GpH7-B3 variant P331R / GpL16-k0 (antibody, human IgG1, Anti-glypican-3 IgG1; constant region B3 = G1d with K439E) heavy: not shown light: DIVMTQSPLSLPVTPGEPASISCQASESLVHSNRNTYLHWYLQKPGQSPQLLIYKVSNRFSGVPDRFSGSGSGTDFTLKISRVEAEDVGVYYCSQNTHVPPTFGQGTKVEIE | 95% | 59% | 55% | 64% | 38% |  |  |
| IL6R-F652/IL6R-L (antibody, human IgG1, Anti-human IL-6 receptor IgG1 antibody; H chain is IL6R-F11 (M252Y/N434Y in IL6R-G1d) with P238D (EU numbering); Control antibody of the PD variants; copies: 2 + 2) heavy: QVQLQESGPGLVKPSETLSLTCAVSGHSISHDHAWSWVRQPPGEGLEWIGFISYSGITNYNPSLQGRVTISRDNSKNTLYLQMNSLRAEDTAVYYCARSLARTTAMDYWGEGTLVTVSSASTKGPSVFPLAPSSKSTSGGTAALGCLVKDYFPEPVTVSWNSGALTSGVHTFPAVLQSSGLYSLSSVVTVPSSSLGTQTYICNVNHKPSNTKVDKKVEPKSCDKTHTCPPCPAPELLGGDSVFLFPPKPKDTLYISRTPEVTCVVVDVSHEDPEVKFNWYVDGVEVHNAKTKPREEQYNSTYRVVSVLTVLHQDWLNGKEYKCKVSNKALPAPIEKTISKAKGQPREPQVYTLPPSRDELTKNQVSLTCLVKGFYPSDIAVEWESNGQPENNYKTTPPVLDSDGSFFLYSKLTVDKSRWQQGNVFSCSVMHEALHYHYTQKSLSLSP light: DIQMTQSPSSLSASVGDRVTITCRASQDISSYLNWYQQKPGKAPKLLIYYTSRLHSGVPSRFSGSGSGTDFTFTISSLQPEDIATYYCQQGNTLPYTFGQGTKVEIK |  |  |  |  |  | 100 % of the binding amount of IL6R-F652/IL6R-L | 100 % of the binding amount of IL6R-F652/IL6R-L |
| IL6R-PD042/IL6R-L (antibody, human IgG1, PD variant: P238D/L234W introduced into IL6R-F11 (EU numbering); copies: 2 + 2) heavy: QVQLQESGPGLVKPSETLSLTCAVSGHSISHDHAWSWVRQPPGEGLEWIGFISYSGITNYNPSLQGRVTISRDNSKNTLYLQMNSLRAEDTAVYYCARSLARTTAMDYWGEGTLVTVSSASTKGPSVFPLAPSSKSTSGGTAALGCLVKDYFPEPVTVSWNSGALTSGVHTFPAVLQSSGLYSLSSVVTVPSSSLGTQTYICNVNHKPSNTKVDKKVEPKSCDKTHTCPPCPAPEWLGGDSVFLFPPKPKDTLYISRTPEVTCVVVDVSHEDPEVKFNWYVDGVEVHNAKTKPREEQYNSTYRVVSVLTVLHQDWLNGKEYKCKVSNKALPAPIEKTISKAKGQPREPQVYTLPPSRDELTKNQVSLTCLVKGFYPSDIAVEWESNGQPENNYKTTPPVLDSDGSFFLYSKLTVDKSRWQQGNVFSCSVMHEALHYHYTQKSLSLSP light: DIQMTQSPSSLSASVGDRVTITCRASQDISSYLNWYQQKPGKAPKLLIYYTSRLHSGVPSRFSGSGSGTDFTFTISSLQPEDIATYYCQQGNTLPYTFGQGTKVEIK |  |  |  |  |  | 106 % of the binding amount of IL6R-F652/IL6R-L | 240 % of the binding amount of IL6R-F652/IL6R-L |
| IL6R-PD043/IL6R-L (antibody, human IgG1, PD variant: P238D/L234Y introduced into IL6R-F11 (EU numbering); copies: 2 + 2) heavy: QVQLQESGPGLVKPSETLSLTCAVSGHSISHDHAWSWVRQPPGEGLEWIGFISYSGITNYNPSLQGRVTISRDNSKNTLYLQMNSLRAEDTAVYYCARSLARTTAMDYWGEGTLVTVSSASTKGPSVFPLAPSSKSTSGGTAALGCLVKDYFPEPVTVSWNSGALTSGVHTFPAVLQSSGLYSLSSVVTVPSSSLGTQTYICNVNHKPSNTKVDKKVEPKSCDKTHTCPPCPAPEYLGGDSVFLFPPKPKDTLYISRTPEVTCVVVDVSHEDPEVKFNWYVDGVEVHNAKTKPREEQYNSTYRVVSVLTVLHQDWLNGKEYKCKVSNKALPAPIEKTISKAKGQPREPQVYTLPPSRDELTKNQVSLTCLVKGFYPSDIAVEWESNGQPENNYKTTPPVLDSDGSFFLYSKLTVDKSRWQQGNVFSCSVMHEALHYHYTQKSLSLSP light: DIQMTQSPSSLSASVGDRVTITCRASQDISSYLNWYQQKPGKAPKLLIYYTSRLHSGVPSRFSGSGSGTDFTFTISSLQPEDIATYYCQQGNTLPYTFGQGTKVEIK |  |  |  |  |  | 112 % of the binding amount of IL6R-F652/IL6R-L | 175 % of the binding amount of IL6R-F652/IL6R-L |

From patent US20140105889A1 (published 2014)
